In PMC2289905:

What was measured:
[1] = biological target: radioiodinated mature transforming growth factor beta 1 (UniProt P01137); assay: cross-linking
[2] = biological target: beta 1-LAP deletion mutant L40-50 (simian); assay: nonreducing SDS-PAGE with immunoblot
[3] = biological target: beta 1-LAP deletion mutant L50-81 (simian); assay: nonreducing SDS-PAGE with immunoblot
[4] = biological target: beta 1-LAP deletion mutant L50-85 (simian); assay: nonreducing SDS-PAGE with immunoblot
[5] = biological target: beta 1-LAP deletion mutant L85-110 (simian); assay: nonreducing SDS-PAGE with immunoblot
[6] = biological target: mature TGFbeta1 secreted by COS-1 cells transfected with wild-type pre-pro-TGFbeta1 (simian); assay: nonreducing SDS-PAGE with immunoblot

radioiodinated mature transforming growth factor beta 1, sequence (P01137 279-390): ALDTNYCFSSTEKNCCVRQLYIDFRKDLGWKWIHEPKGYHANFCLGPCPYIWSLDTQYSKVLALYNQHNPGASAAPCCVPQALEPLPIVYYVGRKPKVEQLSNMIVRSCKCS
beta 1-latency-associated peptide (pro domain of TGFbeta1 expressed independently), wild type (domain or fragment), sequence (P09533 30-390): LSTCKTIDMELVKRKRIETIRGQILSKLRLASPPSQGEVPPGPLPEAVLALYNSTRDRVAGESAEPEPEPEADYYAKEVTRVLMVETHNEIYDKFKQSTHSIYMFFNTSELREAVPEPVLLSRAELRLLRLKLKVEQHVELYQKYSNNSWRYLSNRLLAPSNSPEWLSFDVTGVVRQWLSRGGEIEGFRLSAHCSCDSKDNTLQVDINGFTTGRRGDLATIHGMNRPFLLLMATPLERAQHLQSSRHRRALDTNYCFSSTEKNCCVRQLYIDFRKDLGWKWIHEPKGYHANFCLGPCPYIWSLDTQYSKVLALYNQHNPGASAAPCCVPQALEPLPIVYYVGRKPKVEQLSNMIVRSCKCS

Substance: beta 1-LAP deletion mutant L40-50 (domain or fragment)
- cross-linking (% of wild-type) (% of wild-type) [1]: 10
- stoichiometry N [2]: 2

Substance: beta 1-LAP deletion mutant L50-81 (domain or fragment)
- stoichiometry N [3]: 2

Substance: beta 1-LAP deletion mutant L50-85 (domain or fragment)
- stoichiometry N [4]: 2

Substance: beta 1-LAP deletion mutant L85-110 (domain or fragment)
- cross-linking (% of wild-type) (% of wild-type) [1]: 12
- stoichiometry N [5]: 2

Substance: beta 1-latency-associated peptide (pro domain of TGFbeta1 expressed independently), wild type (domain or fragment)
- cross-linking (% of wild-type) (% of wild-type) [1]: 100

Substance: mature TGFbeta1 secreted by COS-1 cells transfected with wild-type pre-pro-TGFbeta1 (ligand)
- stoichiometry N [6]: 2
